Assay results taken from US20210338833A1 (MIT, published 2021).
Ends that are not written are not given here. * marks the point of attachment. Biotin = O=C1N[C@H]2[C@H](CS[C@H]2CCCCC(=O)*)N1

Columns and labels:
FMC63 IgG [1] = target: T1, FMC63 IgG; assay: yeast display FACS selection with biotinylated FMC63 IgG, second sort
T1 construct: Murine monoclonal antibody to human CD19; also called FMC63 IgG antibody; biotinylated FMC63 IgG
Source text: (§1) As in Example 1, a yeast library was generated using nested PCR and the primers in Table 3.

FMC63 IgG [2] = target: T1, FMC63 IgG; assay: ELISA, N-terminally biotinylated peptide on streptavidin plate, FMC63 IgG
FMC63 IgG [3] = target: T1, FMC63 IgG; assay: yeast-display FACS (MFI) titration with biotinylated FMC63 IgG, 0.01-1000 nM
FMC63 scFv [4] = target: T2, FMC63 scFv (biotinylated); assay: yeast-display FACS titration with biotinylated FMC63 scFv
T2 construct: Whole scFv entry (VL-(G4S)3-VH); also called FMC63-scFv monomer; biotinylated FMC63 scFv
T2 sequence (scFv, as listed by the source): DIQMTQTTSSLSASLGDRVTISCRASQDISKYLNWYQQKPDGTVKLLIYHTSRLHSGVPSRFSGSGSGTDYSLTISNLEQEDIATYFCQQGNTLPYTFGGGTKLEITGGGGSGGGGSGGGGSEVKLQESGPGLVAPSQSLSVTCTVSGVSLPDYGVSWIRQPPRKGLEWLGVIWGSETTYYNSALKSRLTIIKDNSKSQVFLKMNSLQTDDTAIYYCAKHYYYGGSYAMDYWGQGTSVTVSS

FMC63 IgG [5] = target: T1, FMC63 IgG; assay: flow cytometry of yeast-displayed mutant with 5 µM FMC63 IgG
Experimental: Specifically, a representative mimotope, […] […] To generate mutations, two complementary oligos with the codon replaced at the desired site were denatured at 95° C. and annealed by slow cooling to 25° C. (decreasing by 0.5° C./second). The annealed oligos were treated with T4 PNK (T4 Polynucleotide Kinase) to add a terminal phosphate, and then ligated into digested pCT-CON2 vector. Positive clones having the correct oligo inserted were tested and transformed into competent EBY100 yeast cells.

FMC63 IgG [6] = target: T1, FMC63 IgG; assay: yeast display FACS selection with biotinylated FMC63 IgG, first sort
Source text: as §1

FMC63 scFv [7] = target: T2, FMC63 scFv; assay: flow cytometry (MFI) of yeast clone with biotinylated FMC63 scFv and streptavidin-PE
[8] = target: T3, anti-mCD19 (clone 1D3) IgG; assay: yeast display selection with 1D3 IgG
T3 construct: Anti-mouse CD19 IgG; biotinylated for sorting; also called 1D3 antibody; anti-mCD19 IgG
T3 sequence (VH, as listed by the source, chain 1 of 2): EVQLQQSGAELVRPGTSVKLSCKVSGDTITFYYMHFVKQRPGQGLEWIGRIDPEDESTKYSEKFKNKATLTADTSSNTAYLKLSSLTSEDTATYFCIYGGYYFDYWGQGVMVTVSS
T3 sequence (VL, as listed by the source, chain 2 of 2): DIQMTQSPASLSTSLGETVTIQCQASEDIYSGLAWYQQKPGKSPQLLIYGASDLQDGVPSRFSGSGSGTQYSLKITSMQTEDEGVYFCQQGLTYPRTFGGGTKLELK
Experimental: Specifically, a library was generated using nested PCR and the primers in Table 1. […] For each round of enrichment, the top 0.5-1% of yeast were sorted. Following enrichment, isolated clones were subjected to Sanger sequencing. […] To further characterize the mimotope affinity, absolute binding affinity was measured by ELISA. Specifically, three mimotopes were selected for screening (Table 8). Of the selected sequences, two fusion mimotopes were chemically synthesized. Specifically, two mimotopes were fused to form a 20 amino acid peptide (Table 9).

T1 sequence (VH, as listed by the source, chain 1 of 2): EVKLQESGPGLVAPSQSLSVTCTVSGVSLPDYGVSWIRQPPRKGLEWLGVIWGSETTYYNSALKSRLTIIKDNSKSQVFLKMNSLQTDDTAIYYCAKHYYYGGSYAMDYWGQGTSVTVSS
T1 sequence (VL, as listed by the source, chain 2 of 2): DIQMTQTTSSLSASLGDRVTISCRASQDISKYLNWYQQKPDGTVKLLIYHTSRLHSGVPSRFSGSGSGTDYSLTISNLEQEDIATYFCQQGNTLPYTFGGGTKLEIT

RLCPWSCIKL [FMC63 Mimotope RLCPWSCIKL]: binds (FMC63 IgG [1]).

B1: biotinylated F12 derivative GSGGGGSGGGGSASRICPWNCKEL (peptide)
peptide: Biotin-GSGGGGSGGGGSASRICPWNCKEL
modifications: not fully specified (bridges); cysteine pairing not given here
notes: Free peptide loaded on a streptavidin coated plate for ELISA
In the case of B1, the Kd (FMC63 IgG [2]) is reported as 0.134 nM.

With RLCPWSCREL (Parent of the alanine scan) [FMC63 Mimotope (G9) RLCPWSCREL] the Kd (FMC63 IgG [3]) was 25.7 nM and the Kd (FMC63 scFv [4]) was 50.6 nM.

RACPWSCREL (also called G9 X1 (Leu 2) to Ala) [FMC63 Mimotope Mutant RACPWSCREL]: binds (FMC63 IgG [5]).

RICPWSCRPL [FMC63 Mimotope RICPWSCRPL]: binds (FMC63 IgG [1]).

Binder RICPWACVEL [FMC63 Mimotope (H8) RICPWACVEL] has a Kd (FMC63 IgG [3]) of 9.5 nM and a Kd (FMC63 scFv [4]) of 38.9 nM.

RICPWSCVEL [FMC63 Mimotope RICPWSCVEL]: binds (FMC63 IgG [1]).

RICPWSCMEL [FMC63 Mimotope RICPWSCMEL]: binds (FMC63 IgG [1]).

RLCPWSCAEL (also called G9 X3 (Arg 8) to Ala) [FMC63 Mimotope Mutant RLCPWSCAEL]: binds (FMC63 IgG [5]).

RLCPWACRQL [FMC63 Mimotope RLCPWACRQL]: binds (FMC63 IgG [6]).

RLCPWACREL (also called G9 X2 (Ser 6) to Ala) [FMC63 Mimotope Mutant RLCPWACREL]: binds (FMC63 IgG [5]).

RMCPWNCREL [FMC63 Mimotope RMCPWNCREL]: binds (FMC63 IgG [1]).

With RLCPWDCREL [FMC63 Mimotope (F8) RLCPWDCREL] the Kd (FMC63 IgG [3]) was 10.6 nM and the Kd (FMC63 scFv [4]) was 41.5 nM.

RICPWSCIEL [FMC63 Mimotope RICPWSCIEL]: binds (FMC63 IgG [1]).

RLCPWSCREA (also called G9 X5 (Leu 10) to Ala) [FMC63 Mimotope Mutant RLCPWSCREA]: binds (FMC63 IgG [5]).

RLCPWKCREL [FMC63 Mimotope RLCPWKCREL]: binds (FMC63 IgG [1]).

RLCPWNCQEL [FMC63 Mimotope RLCPWNCQEL]: binds (FMC63 IgG [1]).

RLCPWSCRAL (also called G9 X4 (Glu 9) to Ala) [FMC63 Mimotope Mutant RLCPWSCRAL]: binds (FMC63 IgG [5]).

RLCPWNCSEL [FMC63 Mimotope RLCPWNCSEL]: binds (FMC63 IgG [1]).

Binder RICPWSCREL [FMC63 Mimotope (H11) RICPWSCREL] has a Kd (FMC63 IgG [3]) of 10.3 nM and a Kd (FMC63 scFv [4]) of 38.6 nM.

RLCPWNCREL [FMC63 Mimotope (G11) RLCPWNCREL] was tested, and the Kd (FMC63 IgG [3]) was 18.2 nM and the Kd (FMC63 scFv [4]) was 38.4 nM.

RLCPWDCKEL [FMC63 Mimotope RLCPWDCKEL]: binds (FMC63 IgG [1]).

RLCPWNCRQL [FMC63 Mimotope RLCPWNCRQL]: binds (FMC63 IgG [1]).

RVCPWSCVEQ [FMC63 Mimotope RVCPWSCVEQ]: binds (FMC63 IgG [6]).

RLCPWSCVEQ [FMC63 Mimotope RLCPWSCVEQ]: binds (FMC63 IgG [1]).

B2: biotinylated F12 derivative GGSGGGGSASRICPWNCKEL (peptide)
peptide: Biotin-GGSGGGGSASRICPWNCKEL
modifications: not fully specified (bridges); cysteine pairing not given here
notes: as for B1
Binder B2 has a Kd (FMC63 IgG [2]) of 0.139 nM.

With RICPWNCKELPTPYMMFDM [FMC63 mimotope K-A3 RICPWNCKELPTPYMMFDM] the Kd (FMC63 scFv [7]) was 22.1 nM.

For AKRRERDYVGRICPWNCKELHPDTRHRIPV [FMC63 mimotope K-A10 AKRRERDYVGRICPWNCKELHPDTRHRIPV], the Kd (FMC63 scFv [7]) was 18.7 nM.

B3: biotinylated F12 derivative GGGGSGGGGSGGGGSASRICPWNCKEL (peptide)
peptide: Biotin-GGGGSGGGGSGGGGSASRICPWNCKEL
modifications: not fully specified (bridges); cysteine pairing not given here
notes: as for B1
Work on B3 yielded a Kd (FMC63 IgG [2]) of 0.153 nM.

RLCPWDCLIL [FMC63 Mimotope RLCPWDCLIL]: binds (FMC63 IgG [6]).

Work on RLCPWSCVPI [FMC63 Mimotope (E6) RLCPWSCVPI] yielded a Kd (FMC63 IgG [3]) of 102 nM and a Kd (FMC63 scFv [4]) of 126 nM.

For QFQRICPWNCKELYWLPDQ [FMC63 mimotope K-F5 QFQRICPWNCKELYWLPDQ], the Kd (FMC63 scFv [7]) was 13.2 nM.

RLCPWHCAII [FMC63 Mimotope RLCPWHCAII]: binds (FMC63 IgG [6]).

RICPWSCVKQ [FMC63 Mimotope RICPWSCVKQ]: binds (FMC63 IgG [1]).

RRCPWSCKKQ [FMC63 Mimotope (A12) RRCPWSCKKQ] gave a Kd (FMC63 IgG [3]) of 540 nM and a Kd (FMC63 scFv [4]) of 240 nM.

RICPWACLSL [FMC63 Mimotope RICPWACLSL]: binds (FMC63 IgG [6]).

RICPWNCSKL [FMC63 Mimotope RICPWNCSKL]: binds (FMC63 IgG [6]).

Binder PPPRICPWNCKELPLDWPW [FMC63 mimotope K-B5 PPPRICPWNCKELPLDWPW] has a Kd (FMC63 scFv [7]) of 23.8 nM.

B4: biotinylated F12 derivative GGGSASRICPWNCKEL (peptide)
peptide: Biotin-GGGSASRICPWNCKEL
modifications: not fully specified (bridges); cysteine pairing not given here
notes: as for B1
With B4 the Kd (FMC63 IgG [2]) was 0.141 nM.

AGTRICPWNCKELYWLPDE [FMC63 mimotope K-D11 AGTRICPWNCKELYWLPDE] was tested, and the Kd (FMC63 scFv [7]) was 15.9 nM.

Work on RMCPWSCYEL [FMC63 Mimotope (C5) RMCPWSCYEL] yielded a Kd (FMC63 IgG [3]) of 322 nM and a Kd (FMC63 scFv [4]) of 238 nM.

SKLKGKSGPE [1D3 Mimotope (H1) SKLKGKSGPE]: binds [8].

RLCPWSCIPF [FMC63 Mimotope RLCPWSCIPF]: binds (FMC63 IgG [1]).

RICPWDCKPI [FMC63 Mimotope RICPWDCKPI]: binds (FMC63 IgG [1]).

B5: biotinylated F12 derivative SASRICPWNCKEL (peptide)
peptide: Biotin-SASRICPWNCKEL
modifications: not fully specified (bridges); cysteine pairing not given here
notes: as for B1
For B5, the Kd (FMC63 IgG [2]) was 0.147 nM.

RLCPWSCLEI [FMC63 Mimotope RLCPWSCLEI]: binds (FMC63 IgG [1]).

B6: FMC63 Mimotope (H1) RVCPWSCMPI (peptide)
peptide: RVCPWSCMPI
notes: Not the 1D3 mimotope that is also called H1
For B6, the Kd (FMC63 IgG [3]) was 199 nM and the Kd (FMC63 scFv [4]) was 178 nM.

PLSRICPWNCKELYWLPQR [FMC63 mimotope K-A5 PLSRICPWNCKELYWLPQR] showed a Kd (FMC63 scFv [7]) of 12.8 nM.

RLCPWSCMPR [FMC63 Mimotope RLCPWSCMPR]: binds (FMC63 IgG [6]).

Binder RMCPWSCRPH [FMC63 Mimotope (A8) RMCPWSCRPH] has a Kd (FMC63 IgG [3]) of 397 nM.

RLCPWACQEQ [FMC63 Mimotope (C7) RLCPWACQEQ] was tested, and the Kd (FMC63 IgG [3]) was 252 nM and the Kd (FMC63 scFv [4]) was 219 nM.

RICPWSCMVV [FMC63 Mimotope (B7) RICPWSCMVV] gave a Kd (FMC63 IgG [3]) of 376 nM.

With RICPWNCKELYWLPDE [FMC63 mimotope K-A11 RICPWNCKELYWLPDE] the Kd (FMC63 scFv [7]) was 16.8 nM.

RLCPWNCIHW [FMC63 Mimotope RLCPWNCIHW]: binds (FMC63 IgG [6]).

RICPWNCKEL (also called F12 mimotope) [FMC63 Mimotope (F12) RICPWNCKEL] gave a Kd (FMC63 scFv [4]) of 42 nM and a Kd (FMC63 scFv [7]) of 45.5 nM.

RICPWGCKEL [FMC63 Mimotope RICPWGCKEL]: binds (FMC63 IgG [1]).

RLCPWECRVL [FMC63 Mimotope RLCPWECRVL]: binds (FMC63 IgG [6]).

Binder RICPWNCKELPSPPRIFGNR [FMC63 mimotope K-C2 RICPWNCKELPSPPRIFGNR] has a Kd (FMC63 scFv [7]) of 14.8 nM.
